Values belong to the binder of their own block, whether it stands above or below them. *1 amine or outer side, *2 acyl side, *3 side chain or, on linkers, in order; H or OH if unused. Bridges are numbered along the chain shown (N, C = ends). Where no end group is shown, it is not given here. [ ]: non-standard residue; d: D form. The star is where a group is joined. X1 = N3CH2C(O)NH(CH2CH2O)3CH2CH2(CO), [N-]=[N+]=NCC(=O)NCCOCCOCCOCCC(=O)*; N3CH2C(O)NH(CH2CH2O)2CH2C(O) = [N-]=[N+]=NCC(=O)NCCOCCOCC(=O)*; TATA = O=C(CC[*:1])N1CN(C(=O)CC[*:2])CN(C(=O)CC[*:3])C1; Trp(1-Me) = Cn1cc(C[C@H](N)C(=O)O)c2ccccc21; Arg(Me2a) = CN(C)C(=N)NCCC[C@H](N)C(=O)O; Phe(4-F) = N[C@@H](Cc1ccc(F)cc1)C(=O)O; tBuAla = CC(C)(C)C[C@H](N)C(=O)O; NMeA = CN[C@@H](C)C(=O)O
Legend:
[1] = target: T1, Biotinylated human TSLP (hTSLP(29-159)-Avi) (human, biotinylated (C-terminal Avi-tag)); assay: SPR, biotinylated hTSLP on streptavidin chip, peptide injected
T1 construct: also called thymic stromal lymphopoietin

Biotinylated human TSLP [2] = target: T2, Biotinylated human TSLP (human, biotinylated); assay: SPR, biotinylated hTSLP on streptavidin chip; Example 154, Ac-(SEQ ID NO: 113)
T2 construct: also called hTSLP; thymic stromal lymphopoietin

Biotinylated human TSLP [3] = target: T2, Biotinylated human TSLP; assay: SPR, biotinylated hTSLP on streptavidin chip; Example 153, Ac-(SEQ ID NO: 112)
Biotinylated human TSLP [4] = target: T2, Biotinylated human TSLP; assay: SPR, biotinylated hTSLP on streptavidin chip; Example 157, Ac-(SEQ ID NO: 115)
Biotinylated human TSLP [5] = target: T2, Biotinylated human TSLP; assay: SPR, biotinylated hTSLP on streptavidin chip; Example 146, Ac-(SEQ ID NO: 105)
Biotinylated human TSLP [6] = target: T2, Biotinylated human TSLP; assay: SPR, biotinylated hTSLP on streptavidin chip; Example 11, Ac-(SEQ ID NO: 9)
[7] = target: TSLP (as used in the human PBMC assay) (UniProt Q969D9 29-159); assay: cell-based or functional assay
Biotinylated human TSLP [8] = target: T2, Biotinylated human TSLP; assay: SPR, biotinylated hTSLP on streptavidin chip; Example 148, Ac-(SEQ ID NO: 107)
Biotinylated human TSLP [9] = target: T2, Biotinylated human TSLP; assay: SPR, biotinylated hTSLP on streptavidin chip; Example 8, Ac-(SEQ ID NO: 6)
Biotinylated human TSLP [10] = target: T2, Biotinylated human TSLP; assay: SPR, biotinylated hTSLP on streptavidin chip; Example 4, Ac-(SEQ ID NO: 4)
Biotinylated human TSLP [11] = target: T2, Biotinylated human TSLP; assay: SPR, biotinylated hTSLP on streptavidin chip; Example 160, Ac-(SEQ ID NO: 118)
Biotinylated human TSLP [12] = target: T2, Biotinylated human TSLP; assay: SPR, biotinylated hTSLP on streptavidin chip; Example 158, Ac-(SEQ ID NO: 116)
Biotinylated human TSLP [13] = target: T2, Biotinylated human TSLP; assay: SPR, biotinylated hTSLP on streptavidin chip; Example 14, Ac-(SEQ ID NO: 12)

T2 sequence (chain, as listed by the source limits assumed): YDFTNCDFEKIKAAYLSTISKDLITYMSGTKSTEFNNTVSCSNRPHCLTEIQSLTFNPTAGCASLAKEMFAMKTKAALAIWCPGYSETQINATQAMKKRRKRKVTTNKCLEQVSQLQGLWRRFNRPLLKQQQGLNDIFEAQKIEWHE
T1 sequence (chain, as listed by the source limits assumed): as above

B2: Example 154 (peptide)
peptide: CQWXEDCWRGXC
modifications: not fully specified; N-term acetyl; CQW[LMe]EDCWRG[4-FPhe]C as printed; 3 Cys on TATA
Kd (Biotinylated human TSLP [2]): 2900 nM

B4: Example 153 (peptide)
peptide: CQWLEDCWRGXC
modifications: not fully specified; N-term acetyl; CQWLEDCWRG[PentFPhe]C as printed; 3 Cys on TATA
Kd (Biotinylated human TSLP [3]): 2700 nM

B6: Example 157 (peptide)
peptide: CQWLEDCWRGXC
modifications: not fully specified; N-term acetyl; CQWLEDCWRG[4-PyrA]C as printed; 3 Cys on TATA
Kd (Biotinylated human TSLP [4]): 3.9 µM

B7: Example 146 (peptide)
peptide: CQWLEDCWRGXC
modifications: N-term acetyl; CQWLEDCWRG[2PyrA]C as printed; 3 Cys on TATA
Kd (Biotinylated human TSLP [5]): 910 nM

B8: Example 11 (peptide)
peptide: CQWLEDCWRGXC
modifications: not fully specified; N-term acetyl; CQWLEDCWRG[3,4diClPhe]C as printed; 3 Cys on TATA
Kd (Biotinylated human TSLP [6]): 5.8 nM

B10: Example 148 (peptide)
peptide: CQWLEDCWRGXC
modifications: N-term acetyl; CQWLEDCWRG[BnA]C as printed; 3 Cys on TATA
Kd (Biotinylated human TSLP [8]): 1100 nM

B11: Example 8 (peptide)
peptide: CQWLEDCWRGXC
modifications: not fully specified; N-term acetyl; CQWLEDCWRG[4F3ClPhe]C as printed; 3 Cys on TATA
Kd (Biotinylated human TSLP [9]): 4 nM

B13: Example 4 (peptide)
peptide: CQWXEDCWRGXC
modifications: not fully specified; N-term acetyl; CQW[tBuA]EDCWRG[4-FPhe]C as printed; 3 Cys on TATA
Kd (Biotinylated human TSLP [10]): 2.7 nM

B20: Example 158 (peptide)
peptide: CQWLEDCWRGXC
modifications: not fully specified; N-term acetyl; CQWLEDCWRG[3-PyrA]C as printed; 3 Cys on TATA
Kd (Biotinylated human TSLP [12]): 5.4 µM

B21: Example 14 (peptide)
peptide: CQWLEDCWRGXC
modifications: N-term acetyl; CQWLEDCWRG[4-ClPhe]C as printed; 3 Cys on TATA
Kd (Biotinylated human TSLP [13]): 6 nM

The remaining lines, values ahead:

Kd [1]: 960 nM
B1: Example 230 (peptide)
peptide: ACALDPWVCPQWWDCA
modifications: linker 2-9-15 via TATA; not fully specified (C-terminus)

Kd [1]: 740 nM
B3: Example 227 (peptide)
peptide: CDWHWEYDCWLSCANSEFE
modifications: linker 1-9-13 via TATA; not fully specified (C-terminus)

Kd [1]: 3000 nM
B5: Example 223 (peptide)
peptide: CDWHWEYDCWLSCYDNEMS
modifications: linker 1-9-13 via TATA; not fully specified (C-terminus)

Kd [1]: 0.14 nM | CCL17 % Inhibition @ 10 µM, 50 pM TSLP [7]: 87% | CCL17 % Inhibition @ 10 µM, 400 pM TSLP [7]: 85%
B9: Example 251 (peptide)
peptide: {N3CH2C(O)NH(CH2CH2O)2CH2C(O)}-C[NMeA][Trp(1-Me)][tBuAla]QDC[Trp(1-Me)][Arg(Me2a)]G[Phe(4-F)]C-NH2
modifications: linker 1-7-12 via TATA; also: dimer: peptides clicked via N-terminal azido linker to N2,N6-dipent-4-ynoyl-L-lysine core (source also calls it trimeric)
notes: Claim 16 speaks of a dimeric or trimeric moiety

Kd [1]: 0.027 nM | CCL17 % Inhibition @ 10 µM, 50 pM TSLP [7]: 83% | CCL17 % Inhibition @ 10 µM, 400 pM TSLP [7]: 59%
B12: Example 250 (peptide)
peptide: X1-C[NMeA][Trp(1-Me)][tBuAla]QDC[Trp(1-Me)][Arg(Me2a)]G[Phe(4-F)]C-NH2
modifications: linker 1-7-12 via TATA; also: trimer: three peptides clicked via N-terminal azido linker to N-but-3-yn-1-yl-N2,N6-dipent-4-ynoyl-L-lysinamide core
notes: Trimer of identical bicyclic peptides on a tri-alkyne lysinamide core (formula with F3, S9)

Kd [1]: 1800 nM
B14: Example 231 (peptide)
peptide: ACQEHDWYCLLYQPECA
modifications: linker 2-9-16 via TATA; not fully specified (C-terminus)

Kd [1]: 2300 nM
B15: Example 228 (peptide)
peptide: CDWHWEYDCWLSCGAGESS
modifications: linker 1-9-13 via TATA; not fully specified (C-terminus)

Kd (Biotinylated human TSLP [11]): 10 µM
B16: Example 160 (peptide)
peptide: CQWXEDCWRGXC
modifications: not fully specified; N-term acetyl; CQW[4-MenL]EDCWRG[4-FPhe]C as printed; 3 Cys on TATA

Kd [1]: 9900 nM
B17: Example 229 (peptide)
peptide: ACSLDPWSCHNWWTCA
modifications: linker 2-9-15 via TATA; not fully specified (C-terminus)

Kd [1]: 450 nM
B18: Example 222 (peptide)
peptide: CDWHWEYDCWLSCGDMSVS
modifications: linker 1-9-13 via TATA; not fully specified (C-terminus)

Kd [1]: 8300 nM
B19: Example 232 (peptide)
peptide: ACDELDIPCWIFKTLCA
modifications: linker 2-9-16 via TATA; not fully specified (C-terminus)

From patent US20220363718A1 (Bicycle, published 2022)
